Measured values as given in PMC12392934, “TCP19 regulates nitrogen‐dependent sheath blight susceptibility by modulating nitrogen uptake and signalling in rice”.

T1: GST-PIL15 (Oryza sativa, UniProt Q0JNI9 1-637)
T1 sequence: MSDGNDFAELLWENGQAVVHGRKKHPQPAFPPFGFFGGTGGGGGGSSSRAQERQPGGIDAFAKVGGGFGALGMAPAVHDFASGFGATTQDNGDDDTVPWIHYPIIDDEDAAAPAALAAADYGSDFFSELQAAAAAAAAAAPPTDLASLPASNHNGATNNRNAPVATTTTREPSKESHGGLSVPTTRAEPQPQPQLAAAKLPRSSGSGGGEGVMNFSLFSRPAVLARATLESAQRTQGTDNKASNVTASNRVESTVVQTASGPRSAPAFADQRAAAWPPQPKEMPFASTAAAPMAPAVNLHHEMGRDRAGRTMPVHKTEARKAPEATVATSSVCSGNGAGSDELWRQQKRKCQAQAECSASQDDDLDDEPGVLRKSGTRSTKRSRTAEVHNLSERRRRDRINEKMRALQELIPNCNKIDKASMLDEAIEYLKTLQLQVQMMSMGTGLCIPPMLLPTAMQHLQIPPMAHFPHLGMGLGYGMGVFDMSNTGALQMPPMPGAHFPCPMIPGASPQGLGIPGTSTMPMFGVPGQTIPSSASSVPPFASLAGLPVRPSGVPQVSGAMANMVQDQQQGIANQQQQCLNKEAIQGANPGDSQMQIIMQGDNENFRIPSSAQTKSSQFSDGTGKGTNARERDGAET


Molecular target: T1, GST-PIL15
Experiment: EMSA; Chemiluminescent EMSA kit (Thermo Fisher); buffer, salt, pH and temperature not stated
Conditions: protein: recombinant; tags: N-terminal GST (pGEX-5X-1); chain copies: 2; label: biotin (ends); blunt

Row | Binder | binding result
1 | pDEP1-PBE (dsDNA) DNA 1: GATGCACACATGAAGATCGT DNA 2: ACGATCTTCATGTGTGCATC | binds
2 | pAMT1;2-PBE (dsDNA) DNA 1: ACCAAAACACATGAAATCCT DNA 2: AGGATTTCATGTGTTTTGGT | binds
3 | pNRT1.1B-PBE (dsDNA) DNA 1: ACACACACATGTGTTGTAAT DNA 2: ATTACAACACATGTGTGTGT | binds
